Results as given in patent US20260028421A1 (JIANGSU HENGRUI PHARMACEUTICALS, published 2026).

Legend:
hGUCY2C ECD-His = molecular target: T1, hGUCY2C ECD-His (human, UniProt P25092 24-430); experiment: SPR Biacore, antibody captured
T1 construct: also called human GUCY2C protein
Text: To test the affinity of the GUCY2C monoclonal antibodies of the present disclosure for GUCY2C, in this test example, the instruments Biacore 8K and Biacore T200 were used to detect the ability of the antibodies to bind to hGUCY2C-ECD-His (SEQ ID NO: 3). The specific method is as follows: The antibody was affinity-captured using a Protein A biosensor chip conjugated with an anti-human antibody, then a solution containing GUCY2C Protein flowed on the surface of the chip, and reaction signals were detected in real time with an instrument to obtain association and dissociation curves. After dissociation was completed for each cycle, the biosensor chip was washed with 10 mM glycine-hydrochloric acid (pH 1.5) for regeneration. Data fitting was performed using a 1:1 model.

hPDL1 = hPDL1 (human, UniProt Q9NZQ7 19-238); experiment: ELISA
hPDL1, sequence (Q9NZQ7 19-238 limits assumed): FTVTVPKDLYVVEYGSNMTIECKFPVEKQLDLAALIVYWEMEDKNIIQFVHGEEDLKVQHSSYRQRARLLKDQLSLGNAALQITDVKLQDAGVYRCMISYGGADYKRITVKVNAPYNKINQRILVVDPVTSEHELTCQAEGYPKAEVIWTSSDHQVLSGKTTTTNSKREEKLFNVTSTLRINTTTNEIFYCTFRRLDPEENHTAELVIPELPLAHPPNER

hCTLA4 = hCTLA4 (human, UniProt P16410 36-161); experiment: ELISA
hCTLA4, sequence (P16410 36-161 limits assumed): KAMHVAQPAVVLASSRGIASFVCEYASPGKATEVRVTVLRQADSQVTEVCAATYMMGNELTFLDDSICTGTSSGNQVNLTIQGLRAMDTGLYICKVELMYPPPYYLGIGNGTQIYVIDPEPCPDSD

Binder | Kd (hGUCY2C ECD-His) | koff (hGUCY2C ECD-His) | kon (hGUCY2C ECD-His) | EC50 (hPDL1) | EC50 (hCTLA4)
P3-E4 CHI (antibody, human IgG1, kappa, V domains shown, chimeric) VH: QVQLQQPGAELVMPGAAVKLSCKASGYTFINYWMHWLKQRPGQGLEWIGEIDPSDGYTDYNQKFKGKATLTVDKSSSTAYMQLSSLTSEDSAVYYCAISLRGPITFGPFPYWGQGTLVTVSS VL: DIVLTQSPASLAVSLGQRATISCRASESVSIHGTHLMHWYQQKPGQPPKLLIYAASNLESGVPARFSGSGSETDFTLNIHPVAEEDAATYFCQHSIEDPRTFGGGTKLEIKR | 12.9 nM | 0.000228 s⁻¹ | 17700 M⁻¹ s⁻¹ |  | 
PL-4 (bispecific antibody) chain 1: not shown chain 2: DIVLTQSPASLAVSPGQRATITCRASESVSIHGTHLMHWYQQKPGQPPKLLIYAASKLESGVPARFSGSGSGTDFTLTINPVEAEDTANYYCQQSFEDPLTFGQGTKLEIKGGGGSGIPPKIECLPIDISIDEGKVLTVASCFTGEPTPEVTWSTGGRKIHSQEQGRFHIENTDDSTTLTIKDVQKQDGGLYTLTLRNEFGSDSATVNIHIRSI chain 3: not shown chain 4: not shown |  |  |  | 0.7 nM | 6.5 nM
PL-10 (bispecific antibody) chain 1: not shown chain 2: DIVLTQSPASLAVSPGQRATITCRASESVSIHGTHLMHWYQQKPGQPPKLLIYAASKLESGVPARFSGSGSGTDFTLTINPVEAEDTANYYCQQSFEDPLTFGQGTKLEIKGGGGSGIPPKIECLPIDISIDEGKVLTVASCFTGEPTPEVTWSTGGRKIHSQEQGRFHIENTDDSTTLTIKDVQKQDGGLYTLTLRNEFGSDSATVNIHIRSI chain 3: not shown chain 4: not shown |  |  |  | 0.6 nM | 6.9 nM
PL-12 (bispecific antibody) chain 1: not shown chain 2: DIVLTQSPASLAVSPGQRATITCRASESVSIHGTHLMHWYQQKPGQPPKLLIYAASKLESGVPARFSGSGSGTDFTLTINPVEAEDTANYYCQQSFEDPLTFGQGTKLEIKRTVASGIPPKIECLPIDISIDEGKCLTVASAFTGEPTPEVTWSTGGRKIHSQEQGRFHIENTDDSTTLTIKDVQKQDGGLYTLTLRNEFGSDSATVNIHIRSI chain 3: not shown chain 4: not shown |  |  |  | 0.5 nM | 8 nM
PL-7 (bispecific antibody) chain 1: not shown chain 2: DIVLTQSPASLAVSPGQRATITCRASESVSIHGTHLMHWYQQKPGQPPKLLIYAASKLESGVPARFSGSGSGTDFTLTINPVEAEDTANYYCQQSFEDPLTFGQGTKLEIKGGGGSGIPPKIECLPIDISIDEGKVLTVASCFTGEPTPEVTWSTGGRKIHSQEQGRFHIENTDDSTTLTIKDVQKQDGGLYTLTLRNEFGSDSATVNIHIRSI chain 3: not shown chain 4: not shown |  |  |  | 0.5 nM | 7.3 nM
PL-11 (bispecific antibody) chain 1: not shown chain 2: DIVLTQSPASLAVSPGQRATITCRASESVSIHGTHLMHWYQQKPGQPPKLLIYAASKLESGVPARFSGSGSGTDFTLTINPVEAEDTANYYCQQSFEDPLTFGQGTKLEIKRTVASGIPPKIECLPIDISIDEGKVLTVASAFTGEPTPEVTWSTGGRKIHSQEQGRFHIENTDDSTTLTIKDVQKQDGGLYTLTLRNEFGSDSATVNIHIRSI chain 3: not shown chain 4: not shown |  |  |  | 0.6 nM | 5.6 nM
PL-13 (bispecific antibody) chain 1: not shown chain 2: DIVLTQSPASLAVSPGQRATITCRASESVSIHGTHLMHWYQQKPGQPPKLLIYAASKLESGVPARFSGSGSGTDFTLTINPVEAEDTANYYCQQSFEDPLTFGQGTKLEIKRTVASGIPPKIECLPIDISIDEGKVLTVASCFTGEPTPEVTWSTGGRKIHSQEQGRFHIENTDDSTTLTIKDVQKQDGGLYTLTLRNEFGSDSATVNIHIRSI chain 3: not shown chain 4: not shown |  |  |  | 0.5 nM | 4.4 nM
PL-9 (bispecific antibody) chain 1: not shown chain 2: DIVLTQSPASLAVSPGQRATITCRASESVSIHGTHLMHWYQQKPGQPPKLLIYAASKLESGVPARFSGSGSGTDFTLTINPVEAEDTANYYCQQSFEDPLTFGQGTKLEIKGGGGSGIPPKIECLPIDISIDEGKCLTVASAFTGEPTPEVTWSTGGRKIHSQEQGRFHIENTDDSTTLTIKDVQKQDGGLYTLTLRNEFGSDSATVNIHIRSI chain 3: not shown chain 4: not shown |  |  |  | 0.6 nM | 5.5 nM
PL-5 (bispecific antibody) chain 1: not shown chain 2: DIVLTQSPASLAVSPGQRATITCRASESVSIHGTHLMHWYQQKPGQPPKLLIYAASKLESGVPARFSGSGSGTDFTLTINPVEAEDTANYYCQQSFEDPLTFGQGTKLEIKGGGGSGIPPKIECLPIDISIDEGKVLTVASAFTGEPTPEVTWSTGGRKIHSQEQGRFHIENTDDSTTLTIKDVQKQDGGLYTLTLRNEFGSDSATVNIHIRSI chain 3: not shown chain 4: not shown |  |  |  | 0.7 nM | 6.7 nM
P2-B9 CHI (antibody, human IgG1, kappa, V domains shown, chimeric) VH: QVQLQQPGAELVKPGASVKLSCKASGYTFSSYWMHWVKQRPGQGLEWIGMIHPKSDSVNNNEKFKNKATLTVDKSSSTVYLQLSSLTSEDSAVYSCARGGDSGYSMDYWGQGTSVTVSS VL: DIVLTQSPASLAVSLGQKATISCKASKKVTIFGSISALHWYQQKPGQPPKLIYNGAKLESGVSARFSDSGSQNRSPFGNQLSFTLTIDPVEADDAATYYCLQNKEVPYTFGGGTKLEIKR | 3.02 nM | 0.000175 s⁻¹ | 58100 M⁻¹ s⁻¹ |  | 
P1-C6 CHI (antibody, human IgG1, kappa, V domains shown, chimeric) VH: QVQLQQSGAELARPGASVKLSCKASGYTFTSYGITWVKRRTGQGLGWIGEIYPRSGNTYYNEKFKGKATLTADKSSSTAYMELRSLTSEDSAVYFCARAITTVVGDWYFDVWGTGTTVTVSS VL: DIVLTQSPASLAMSLGKRATISCRASESVSLIGTNLIHWYQQKPGQPPKLLIHHASNLEAGVPARFSGSGSRTDFTLTIDPVEEDDVAIYYCLQSRKIRTFGGGTKLEIKR | 2.57 nM | 0.000181 s⁻¹ | 70700 M⁻¹ s⁻¹ |  | 
P3-C7 CHI (antibody, human IgG1, kappa, V domains shown, chimeric; also called P3-C7 CH1) VH: EVQLQQSGPVLLKPGASVKMSCKASGYTFTDHYIHWVKLSHGKSLEWIGVINPYNDGATYNQKFKGKATLTVDKSSSTAYMELNSLTSEDSAVYYCARPPRAYGNYAGYWGQGTTLTVSS VL: DVVMTQTPLSLPVSLGDQASISCRSSQSLVHSNGNTYLHWYLQKPGQSPKLLIYKVSNRFSGVPDRFIGSGSRTDFTLKISRVEAEDLGVYFCSQSTHVPYTFGGGTRLEIKR | 6.61 nM | 0.000149 s⁻¹ | 22600 M⁻¹ s⁻¹ |  | 
P2-C8 CHI (antibody, human IgG1, kappa, V domains shown, chimeric) VH: EVQLQQSGPVLVKPGASVKMSCKVSGYTFTDYYMHWVKQSHGKSLEWIGLINPYNGVTSYNQKFKGKATLTVDKSSSTAYMELNSLTSEDSAVYYCARPPRAYGNYAGYWGQGTTLTVSS VL: not shown | 5.12 nM | 0.000178 s⁻¹ | 34900 M⁻¹ s⁻¹ |  | 
P3-D2 CHI (antibody, human IgG1, kappa, V domains shown, chimeric) VH: EVQLQQSGPVLVKPGASVKMSCKASGYTFTDYFMHWVKQSHGKSLEWIGLINPYSGGTTYNQKFKGKATLTVDKSSSTAYMELNSLTSEDSAVYYCARPPRAYGDYAGYWGQGTTLTVSS VL: DVVMTQTPLSLPVSLGDQASISCRSSQSLVHSNGNTYLHWYLQKPGQSPKLLIYKVSNRFSGVPDRFSGSGSGTDFTLKISRVEAEDLGVYFCSQSTHVPLTFGTGTKLEIKR | 4.5 nM | 0.000173 s⁻¹ | 38600 M⁻¹ s⁻¹ |  | 
M64 CHI (antibody, human IgG1, kappa, V domains shown, chimeric) VH: EVQLVESGGGLVKPGGSLKLSCAASGFTFSDYGMHWVRQAPEKGLEWVAYISSGSSTIYYADTVKGRFTISRDNAKNTLFLQMTSLRSEDTAMYYCARTRVYFYGSYWYFDVWGTGTTVTVSS VL: QIVLTQSPAIMSASPGEKVTMTCSASSSVSYMYWYQQKSGTSPKRWIYDTSKLASGVPARFSGSGSGTSYSLTISSLEAEDAATYYCQQWSSDPPYTFGGGTKLEIKR | 20.4 nM | 0.000348 s⁻¹ | 17100 M⁻¹ s⁻¹ |  | 
